# Source: IntAct's records for PubMed 22068056
# B1: SWI/SNF-related matrix-associated actin-dependent regulator of chromatin subfamily D member 3 (Mus musculus), Q6P9Z1 (parent)
# chain: MAADEVAGGARKATKSKLFEFLVHGVRPGMPSGARMPHQGAPMGPPGSPYMGSPAVRPGLAPAGMEPARKRAAPPPGQSQAQGQGQPVPTAPARSRSAKRRKMADKILPQRIRELVPESQAYMDLLAFERKLDQTIMRKRVDIQEALKRPMKQKRKLRLYISNTFNPAKPDAEDSDGSIASWELRVEGKLLDDPSKQKRKFSSFFKSLVIELDKDLYGPDNHLVEWHRTPTTQETDGFQVKRPGDLSVRCTLLLMLDYQPPQFKLDPRLARLLGLHTQSRSAIVQALWQYVKTNRLQDSHDKEYINGDKYFQQIFDCPRLKFSEIPQRLTALLLPPDPIVINHVISVDPSDQKKTACYDIDVEVEEPLKGQMSSFLLSTANQQEISALDSKIHETIESINQLKIQRDFMLSFSRDPKGYVQDLLRSQSRDLKVMTDVAGNPEEERRAEFYHQPWSQEAVSRYFYCKIQQRRQELEQSLVVRNT
# Variants of: B1
# Details: with smca4_mouse Smarca4, Q3TKT4
# Chain of smca4_mouse Smarca4, Q3TKT4 (Q3TKT4 whole entry): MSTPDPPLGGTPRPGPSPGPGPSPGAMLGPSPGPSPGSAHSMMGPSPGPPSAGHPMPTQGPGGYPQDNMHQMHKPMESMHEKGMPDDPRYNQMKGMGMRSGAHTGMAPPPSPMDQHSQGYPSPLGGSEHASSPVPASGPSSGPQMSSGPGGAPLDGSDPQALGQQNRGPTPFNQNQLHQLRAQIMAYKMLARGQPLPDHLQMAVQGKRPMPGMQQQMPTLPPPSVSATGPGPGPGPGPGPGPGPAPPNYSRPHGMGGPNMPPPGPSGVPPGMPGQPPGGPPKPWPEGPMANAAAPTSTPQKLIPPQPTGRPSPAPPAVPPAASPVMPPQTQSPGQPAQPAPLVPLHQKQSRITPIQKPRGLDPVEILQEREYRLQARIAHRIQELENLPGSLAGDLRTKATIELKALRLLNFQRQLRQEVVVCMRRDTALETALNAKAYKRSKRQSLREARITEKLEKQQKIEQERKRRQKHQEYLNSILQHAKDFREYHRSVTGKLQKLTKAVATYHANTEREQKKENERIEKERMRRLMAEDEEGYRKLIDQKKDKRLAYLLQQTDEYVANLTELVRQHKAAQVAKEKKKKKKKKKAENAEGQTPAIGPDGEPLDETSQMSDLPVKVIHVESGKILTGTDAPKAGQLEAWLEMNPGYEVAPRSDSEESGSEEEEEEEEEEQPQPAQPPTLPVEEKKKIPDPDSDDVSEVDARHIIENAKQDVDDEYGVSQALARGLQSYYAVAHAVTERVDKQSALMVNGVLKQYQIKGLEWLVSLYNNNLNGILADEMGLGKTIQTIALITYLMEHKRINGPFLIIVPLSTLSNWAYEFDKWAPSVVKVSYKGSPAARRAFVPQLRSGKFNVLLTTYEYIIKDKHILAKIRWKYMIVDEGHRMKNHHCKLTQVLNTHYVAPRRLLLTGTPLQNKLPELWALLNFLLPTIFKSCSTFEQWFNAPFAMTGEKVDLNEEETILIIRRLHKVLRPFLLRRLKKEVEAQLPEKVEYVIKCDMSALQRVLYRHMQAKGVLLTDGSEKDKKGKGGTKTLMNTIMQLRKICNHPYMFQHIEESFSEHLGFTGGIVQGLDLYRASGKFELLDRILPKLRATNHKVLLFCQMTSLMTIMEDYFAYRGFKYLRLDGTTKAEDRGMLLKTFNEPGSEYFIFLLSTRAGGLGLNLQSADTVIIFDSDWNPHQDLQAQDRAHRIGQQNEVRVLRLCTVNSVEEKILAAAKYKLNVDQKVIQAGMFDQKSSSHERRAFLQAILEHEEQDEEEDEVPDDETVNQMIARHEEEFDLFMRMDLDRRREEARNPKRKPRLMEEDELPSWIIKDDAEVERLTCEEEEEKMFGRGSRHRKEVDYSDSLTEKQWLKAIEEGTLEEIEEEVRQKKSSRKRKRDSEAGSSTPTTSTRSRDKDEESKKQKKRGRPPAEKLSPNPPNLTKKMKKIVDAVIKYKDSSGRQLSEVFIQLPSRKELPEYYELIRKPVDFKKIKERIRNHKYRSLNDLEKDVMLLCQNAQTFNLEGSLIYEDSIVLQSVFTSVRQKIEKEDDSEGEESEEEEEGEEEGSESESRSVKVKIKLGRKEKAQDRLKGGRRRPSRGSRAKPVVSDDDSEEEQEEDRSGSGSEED
row,effect of a mutation on the interaction,Variant
1,disrupting interaction,T229A
